# Experimental data as given in patent JP2005330292A (dated 2005).
# Target: T1, ヒト組織因子(TF)(ヒト膀胱癌細胞J82上に発現) (human, UniProt P13726 33-295)
# T1 construct: whole, on cells; Target of the cell ELISA; also called ヒトTF; 抗原
# Assay: cell ELISA on fixed J82 cells
row,Binder,binding result
1,"H鎖キメラ/L鎖ヒト型化バージョンb抗体 (antibody, V domains shown, Human IgG4 kappa (vector N5KG4P); also called ch-b) VH: EVQLQQSGTNLVRPGALVKLSCKGSGFNIKDYYMHWVKQRPEQGLEWIGGNDPANGHSMYDPKFQGKASITADTSSNTAYLQLSSLTSEDTAVYFCARDSGYAMDYWGQGTSVTVSS VL: DIQMTQSPSSLSASVGDRVTITCKASQDIKSFLSWYQQKPGKAPKLLIYYATSLADGVPSRFSGSGSGTDYTLTISSLQPEDFATYYCLQHGESPYTFGGGTKVEIK",binds
2,"H鎖キメラ/L鎖ヒト型化バージョンa抗体 (antibody, V domains shown, Human IgG4 kappa (vector N5KG4P); also called ch-a) VH: EVQLQQSGTNLVRPGALVKLSCKGSGFNIKDYYMHWVKQRPEQGLEWIGGNDPANGHSMYDPKFQGKASITADTSSNTAYLQLSSLTSEDTAVYFCARDSGYAMDYWGQGTSVTVSS VL: DIQMTQSPSSLSASVGDRVTITCKASQDIKSFLSWYQQKPGKAPKLLIYYATSLADGVPSRFSGSGSGTDFTLTISSLQPEDFATYYCLQHGESPYTFGGGTKVEIK",binds
3,"H鎖ヒト型化バージョンd/L鎖ヒト型化バージョンb抗体 (antibody, V domains shown, Human IgG4 kappa (vector N5KG4P); also called d-b) VH: QVQLLESGAVLARPGTSVKISCKASGFNIKDYYMHWVKQRPGQGLEWIGGNDPANGHSMYDPKFQGRVTITADESTSTAYMELSSLRSEDSAVYFCARDSGYAMDYWGQGTLVTVSS VL: DIQMTQSPSSLSASVGDRVTITCKASQDIKSFLSWYQQKPGKAPKLLIYYATSLADGVPSRFSGSGSGTDYTLTISSLQPEDFATYYCLQHGESPYTFGGGTKVEIK",binds
4,"H鎖ヒト型化バージョンj/L鎖ヒト型化バージョンb抗体 (antibody, V domains shown, Human IgG4 kappa (vector N5KG4P); also called j-b) VH: QVQLLESGAVLARPGTSVKISCKASGFNIKDYYMHWVKQRPGQGLEWIGGNDPANGHSMYDPKFQGRVTFTADTSANTAYMELRSLRSADTAVYYCARDSGYAMDYWGQGTLVTVSS VL: DIQMTQSPSSLSASVGDRVTITCKASQDIKSFLSWYQQKPGKAPKLLIYYATSLADGVPSRFSGSGSGTDYTLTISSLQPEDFATYYCLQHGESPYTFGGGTKVEIK",binds
5,"H鎖ヒト型化バージョンi/L鎖ヒト型化バージョンb1抗体 (antibody, V domains shown, Human IgG4 kappa (vector N5KG4P); also called i-b1) VH: QVQLLESGAVLARPGTSVKISCKASGFNIKDYYMHWVKQRPGQGLEWIGGNDPANGHSMYDPKFQGRVTITADTSTSTVFMELSSLRSEDTAVYYCARDSGYAMDYWGQGTLVTVSS VL: DIQMTQSPSSLSASVGDRVTITCKASQDIKSFLSWFQQKPGKSPKTLIYYATSLADGVPSRFSGSGSGTDYTLTISSLQPEDFATYYCLQHGESPYTFGGGTKVEIK",binds
6,"H鎖キメラ/L鎖ヒト型化バージョンc抗体 (antibody, V domains shown, Human IgG4 kappa (vector N5KG4P); also called ch-c) VH: EVQLQQSGTNLVRPGALVKLSCKGSGFNIKDYYMHWVKQRPEQGLEWIGGNDPANGHSMYDPKFQGKASITADTSSNTAYLQLSSLTSEDTAVYFCARDSGYAMDYWGQGTSVTVSS VL: DIQMTQSPSSLSASVGDRVTITCKASQDIKSFLSWYQQKPGKAPKLLIYYATSLADGVPSRFSGSGSGTDYTLTISSLQPEDIATYYCLQHGESPYTFGGGTKVEIK",binds
7,"H鎖ヒト型化バージョンg/L鎖ヒト型化バージョンb抗体 (antibody, V domains shown, Human IgG4 kappa (vector N5KG4P); also called g-b) VH: QVQLLESGAVLARPGTSVKISCKASGFNIKDYYMHWVKQRPGQGLEWIGGNDPANGHSMYDPKFQGKATLTADESSSTAYMQLSSLRSEDSAVYSCARDSGYAMDYWGQGTLVTVSS VL: DIQMTQSPSSLSASVGDRVTITCKASQDIKSFLSWYQQKPGKAPKLLIYYATSLADGVPSRFSGSGSGTDYTLTISSLQPEDFATYYCLQHGESPYTFGGGTKVEIK",binds
8,"H鎖キメラ/L鎖ヒト型化バージョンb2抗体 (antibody, V domains shown, Human IgG4 kappa (vector N5KG4P); also called ch-b2) VH: EVQLQQSGTNLVRPGALVKLSCKGSGFNIKDYYMHWVKQRPEQGLEWIGGNDPANGHSMYDPKFQGKASITADTSSNTAYLQLSSLTSEDTAVYFCARDSGYAMDYWGQGTSVTVSS VL: DIQMTQSPSSLSASVGDRVTITCKASQDIKSFLSWYQQKPEKAPKSLIYYATSLADGVPSRFSGSGSGTDYTLTISSLQPEDFATYYCLQHGESPYTFGGGTKVEIK",binds
9,"H鎖ヒト型化バージョンd3/L鎖ヒト型化バージョンb抗体 (antibody, V domains shown, Human IgG4 kappa (vector N5KG4P); also called d3-b) VH: QVQLLESGAVLARPGTSVKISCKASGFNIKDYYMHWVRQAPGQGLEWIGGNDPANGHSMYDPKFQGRVTITADESTSTAYMELSSLRSEDSAVYFCARDSGYAMDYWGQGTLVTVSS VL: DIQMTQSPSSLSASVGDRVTITCKASQDIKSFLSWYQQKPGKAPKLLIYYATSLADGVPSRFSGSGSGTDYTLTISSLQPEDFATYYCLQHGESPYTFGGGTKVEIK",binds
10,"H鎖キメラ/L鎖ヒト型化バージョンb1抗体 (antibody, V domains shown, Human IgG4 kappa (vector N5KG4P); also called ch-b1) VH: EVQLQQSGTNLVRPGALVKLSCKGSGFNIKDYYMHWVKQRPEQGLEWIGGNDPANGHSMYDPKFQGKASITADTSSNTAYLQLSSLTSEDTAVYFCARDSGYAMDYWGQGTSVTVSS VL: DIQMTQSPSSLSASVGDRVTITCKASQDIKSFLSWFQQKPGKSPKTLIYYATSLADGVPSRFSGSGSGTDYTLTISSLQPEDFATYYCLQHGESPYTFGGGTKVEIK",binds
11,"H鎖ヒト型化バージョンa/L鎖キメラ抗体 (antibody, V domains shown, Human IgG4 kappa (vector N5KG4P); also called a-ch) VH: QVQLLESGAVLARPGTSVKISCKASGFNIKDYYMHWVKQRPGQGLEWIGGNDPANGHSMYDPKFQGRAKLTAATSASIAYLEFSSLTNEDSAVYYCARDSGYAMDYWGQGTLVTVSS VL: DIKMTQSPSSMYASLGERVTITCKASQDIKSFLSWYQQKPWKSPKTLIYYATSLADGVPSRFSGSGSGQDYSLTINNLESDDTATYYCLQHGESPYTFGGGTKLEIK",binds
12,"H鎖ヒト型化バージョンc/L鎖キメラ抗体 (antibody, V domains shown, Human IgG4 kappa (vector N5KG4P); also called c-ch) VH: QVQLLESGAVLARPGTSVKISCKASGFNIKDYYMHWVKQRPGQGLEWIGGNDPANGHSMYDPKFQGRVTMLVDTSKNQFSLRLSSVTAADTAVYYCARDSGYAMDYWGQGTLVTVSS VL: DIKMTQSPSSMYASLGERVTITCKASQDIKSFLSWYQQKPWKSPKTLIYYATSLADGVPSRFSGSGSGQDYSLTINNLESDDTATYYCLQHGESPYTFGGGTKLEIK",binds
13,"H鎖ヒト型化バージョンb/L鎖キメラ抗体 (antibody, V domains shown, Human IgG4 kappa (vector N5KG4P); also called b-ch) VH: QVQLLESGAVLARPGTSVKISCKASGFNIKDYYMHWVKQRPGQGLEWIGGNDPANGHSMYDPKFQGRVTITADTSTNTAYMELSSLRSEDTAIYYCARDSGYAMDYWGQGTLVTVSS VL: DIKMTQSPSSMYASLGERVTITCKASQDIKSFLSWYQQKPWKSPKTLIYYATSLADGVPSRFSGSGSGQDYSLTINNLESDDTATYYCLQHGESPYTFGGGTKLEIK",binds
14,"H鎖ヒト型化バージョンd/L鎖キメラ抗体 (antibody, V domains shown, Human IgG4 kappa (vector N5KG4P); also called d-ch) VH: QVQLLESGAVLARPGTSVKISCKASGFNIKDYYMHWVKQRPGQGLEWIGGNDPANGHSMYDPKFQGRVTITADESTSTAYMELSSLRSEDSAVYFCARDSGYAMDYWGQGTLVTVSS VL: DIKMTQSPSSMYASLGERVTITCKASQDIKSFLSWYQQKPWKSPKTLIYYATSLADGVPSRFSGSGSGQDYSLTINNLESDDTATYYCLQHGESPYTFGGGTKLEIK",binds
15,"H鎖ヒト型化バージョンi/L鎖キメラ抗体 (antibody, V domains shown, Human IgG4 kappa (vector N5KG4P); also called i-ch) VH: QVQLLESGAVLARPGTSVKISCKASGFNIKDYYMHWVKQRPGQGLEWIGGNDPANGHSMYDPKFQGRVTITADTSTSTVFMELSSLRSEDTAVYYCARDSGYAMDYWGQGTLVTVSS VL: DIKMTQSPSSMYASLGERVTITCKASQDIKSFLSWYQQKPWKSPKTLIYYATSLADGVPSRFSGSGSGQDYSLTINNLESDDTATYYCLQHGESPYTFGGGTKLEIK",binds

# Next, values leading:
row,binding result,Binder
1,binds,"H鎖ヒト型化バージョンb3/L鎖ヒト型化バージョンb抗体 (antibody, V domains shown, Human IgG4 kappa (vector N5KG4P); also called b3-b) VH: QVQLLESGAVLARPGTSVKISCKASGFNIKDYYMHWVRQAPGQGLEWIGGNDPANGHSMYDPKFQGRVTITADTSTNTAYMELSSLRSEDTAIYYCARDSGYAMDYWGQGTLVTVSS VL: DIQMTQSPSSLSASVGDRVTITCKASQDIKSFLSWYQQKPGKAPKLLIYYATSLADGVPSRFSGSGSGTDYTLTISSLQPEDFATYYCLQHGESPYTFGGGTKVEIK"
2,binds,"H鎖ヒト型化バージョンb/L鎖ヒト型化バージョンc抗体 (antibody, V domains shown, the construction of its expression plasmid is not described; also called b-c) VH: QVQLLESGAVLARPGTSVKISCKASGFNIKDYYMHWVKQRPGQGLEWIGGNDPANGHSMYDPKFQGRVTITADTSTNTAYMELSSLRSEDTAIYYCARDSGYAMDYWGQGTLVTVSS VL: DIQMTQSPSSLSASVGDRVTITCKASQDIKSFLSWYQQKPGKAPKLLIYYATSLADGVPSRFSGSGSGTDYTLTISSLQPEDIATYYCLQHGESPYTFGGGTKVEIK"
3,binds,"H鎖ヒト型化バージョンb/L鎖ヒト型化バージョンa抗体 (antibody, V domains shown, Human IgG4 kappa (vector N5KG4P); also called b-a) VH: QVQLLESGAVLARPGTSVKISCKASGFNIKDYYMHWVKQRPGQGLEWIGGNDPANGHSMYDPKFQGRVTITADTSTNTAYMELSSLRSEDTAIYYCARDSGYAMDYWGQGTLVTVSS VL: DIQMTQSPSSLSASVGDRVTITCKASQDIKSFLSWYQQKPGKAPKLLIYYATSLADGVPSRFSGSGSGTDFTLTISSLQPEDFATYYCLQHGESPYTFGGGTKVEIK"
4,binds,"H鎖ヒト型化バージョンb/L鎖ヒト型化バージョンb2抗体 (antibody, V domains shown, Human IgG4 kappa (vector N5KG4P); also called b-b2) VH: QVQLLESGAVLARPGTSVKISCKASGFNIKDYYMHWVKQRPGQGLEWIGGNDPANGHSMYDPKFQGRVTITADTSTNTAYMELSSLRSEDTAIYYCARDSGYAMDYWGQGTLVTVSS VL: DIQMTQSPSSLSASVGDRVTITCKASQDIKSFLSWYQQKPEKAPKSLIYYATSLADGVPSRFSGSGSGTDYTLTISSLQPEDFATYYCLQHGESPYTFGGGTKVEIK"
5,binds,"H鎖ヒト型化バージョンa/L鎖ヒト型化バージョンa抗体 (antibody, V domains shown, Human IgG4 kappa (vector N5KG4P); also called a-a) VH: QVQLLESGAVLARPGTSVKISCKASGFNIKDYYMHWVKQRPGQGLEWIGGNDPANGHSMYDPKFQGRAKLTAATSASIAYLEFSSLTNEDSAVYYCARDSGYAMDYWGQGTLVTVSS VL: DIQMTQSPSSLSASVGDRVTITCKASQDIKSFLSWYQQKPGKAPKLLIYYATSLADGVPSRFSGSGSGTDFTLTISSLQPEDFATYYCLQHGESPYTFGGGTKVEIK"
6,binds,"H鎖ヒト型化バージョンj/L鎖キメラ抗体 (antibody, V domains shown, Human IgG4 kappa (vector N5KG4P); also called j-ch) VH: QVQLLESGAVLARPGTSVKISCKASGFNIKDYYMHWVKQRPGQGLEWIGGNDPANGHSMYDPKFQGRVTFTADTSANTAYMELRSLRSADTAVYYCARDSGYAMDYWGQGTLVTVSS VL: DIKMTQSPSSMYASLGERVTITCKASQDIKSFLSWYQQKPWKSPKTLIYYATSLADGVPSRFSGSGSGQDYSLTINNLESDDTATYYCLQHGESPYTFGGGTKLEIK"
7,binds,"H鎖ヒト型化バージョンe/L鎖キメラ抗体 (antibody, V domains shown, Human IgG4 kappa (vector N5KG4P); also called e-ch) VH: QVQLLESGAVLARPGTSVKISCKASGFNIKDYYMHWVKQRPGQGLEWIGGNDPANGHSMYDPKFQGRVSITADESTKIAYMELNSLRSEDTAVYFCARDSGYAMDYWGQGTLVTVSS VL: DIKMTQSPSSMYASLGERVTITCKASQDIKSFLSWYQQKPWKSPKTLIYYATSLADGVPSRFSGSGSGQDYSLTINNLESDDTATYYCLQHGESPYTFGGGTKLEIK"
